Experiment: label from the status in PepcDB records

Sequence | protein production
MGFHLRGAIDIPEWLDNVSIISRDGNKELVSILKSQLEGYKIDVNSDPSLAKYWLIINSSSLQQQIVSIGASTNPRQYQLILTIEFMLQTPKGQIIKTPRKVNVSRQLTVNNDRILGSNEEQALLVSEMRRDAAIQIINRLNRPLEHHHHHH | not failed
MTVLDKVNDPTDIKALTPLELEELATNVRDAILNRVSQYPGGHLGPNLGVVEMTIALHKVFNSPVDKLIWDVSHQSYPHKVLTGRKEFFTDKDKFSGTTGYTDPEENEHDFIRVGHTSTSIATAMGYALARDVQGKKENIVAIIGDGALSGGLAFEGLDGAGTLNGNLIIIVNDNEMAITENHGGIYQHLADLRASKGTSANNLFKSFGLDYRYLEEGNDIQSLIVLFESVKDINRPIVLHIHIEKGHGYKPAVENKEGMHQVFAPFDIATGQPVNSSTNIVRSYNNVFLDFMEEKLAKGDNLIAINAAIPMFFGLSQFAKNHPKNYVDGGIAEQYTVTLGGAIAAAGTRAIIFQNATFLQRAYDQLNHDLALNKEPAIVIISNSQIGGTNDTHQGSFVYSQTSNIPNVIDLAATSEEDLFAMLNWAYNQHEHPVFIHLPEHTLENRPTKITDFSKPQYEVVKSGEKVAILGLGAMLEKAENVAEELEKSGFNPTVVNPFFANLLDVAALDKLSETHGLFVTIEDGTKDGGFGQKVATYLASKGIKTLVYGADTEFIDAVPKEELYNRYHIRPELMATDIIEATKESKGPNFFKKIFSKLEHHHHHH | not failed
MALAFDEFGRPFIILREQDQKTRLKGIDAQKANISAGKAVARILRSSLGPKGMEKKCFKDLTEMSPYVSFFLLNLISLRSIPMALALNSGLQPIETLSAVKSQQIKRRTFHSTGLIATM | failed
MFVLKNFKIVFSYFPIVLQYILNVALICLGVVLSVFLMKEVIQFMQELKLDGNESSYHLIDSIVVFFLYFEFIVMIIKYFQMNFHFPLRYFIYIGITAIVRLIIIDHDSPLDLLLYACAIFVLISALFIANSKMMRWDLE | failed
MKIEERKQYVKIEVQEGDTLWELADRIKGGKTADKHKFIEWVADKNNLPTSVIKPGDVLILPVAKQHSDQYQLAVVELEHHHHHH | not failed
VDDTVNVANEYSRYPLENYQLDFYVDNSWGWLPWNWSDGIGKQVMYGLYAITNFIWTISLYVSNATGYLVQEAYSLDFISATADSIGKNMQTLAGVTPSGLSTEGFYVGFLLLLILVLGVYVVYTGLIKRETTKAIHAIVNFVMVFILSASFIAYAPDYIKKIN | failed
MPTVKSRLVLYFPGFDPLDAAAHHLRYQRAAALAGKTWDVNYAVGPRESRPAGEAFTVEASAGNWSTRSDIVVYDHNDVISQLRDASVWRQIWLGFKAGAGIVSEGGAARYLRHAWRFGLFFIFPFLLMLAGGALAAGIALSPWLFSLPLWLLVVSIPAAALFFVKAFLPFAERFHTLHLYADWRFALAVGRNEPIARDWIEERAALVVTALEEPSDEVLVVSHSMGASLALAVIGRVLELKPDALDGRKLSFATLGGAALQCAFLSSAERLRESIGAIARHPDVTWFDIQCLTDPIHLYRCNTVALTGHKDAPQPKIVPIRFKHSLSPERYKKNKRNFLRMHRQYVLGPDRRSGYDFTLLTAGPLPAASFADLESQSPPAL | failed
QYHDHHKDQYQMDAAHVPNKTPLYITDILSLRGKKDSGPARDSIRDSIDRIEFTDFQLHELTGRWLSENMPEGFKSDRFRFLARTITASEEAPVEGSDGEIRIKPNLYILVWEPSFYEELLTRDYFFLFPPEILKQHTLVFQLYSFFRSRMVRRHTDCMLLSELNQKLARNIEWRRFSMDLIRELKRLSDGKGTDDLFVVNLWGYHLTIETMIENDKVMDYQIDIKCDVEEVLRYSRARTTNAGKRNMAPTLPNPLRNEMVTRQQLEALSGIIDGEFEPIQRKTPSPRGNLGRRVKQRKHLVEINADEITITLSKYTSPEALERSITALSAMTGHSYASIKEECSEYIEKLDWLRVGDEPIPYETLSKTVELFNTQNEVKHLTIERLIAGLAVRRKVCRQVFDGHMDEMVFRALDEMAI | failed
ENGSRKQLYRLDLKTLEISQIQTGEDVVQWFGVATDNGAVWYSGQSANNADRLYRLDGTKGKLVWDLSAEKLANIDFTPARDWNYTAPDGTVVEGWYYLPPQFDPSKKYPMLVYYYGGTSPINRTLEGHYSLAMYAAQGYVVYTLNPSGTTGYGQEYAARHVNAWGDRTADEIIGATKEFIRTHSFVNGKK | failed
MSRKSAPSSTAAPAPKLAADRIRATARELFYREGIRAVGVDAIVSAAGVTKPSLYRSFSSKDELAASYLRDYETEFWSRFDAGAQRHPDDPRAQLRLYLESLAERAANAGPYRGCGLSNAAVEYPDPDHPARLVAEAHKRELRRRLIDMARRMGAREPEVLGDGLMLLIEGAFISGQLFHGDGPARHVARLADRLIEASL | failed
MTIGYRDAAGDPLFPWLMEIKNSMEDLYAGKNSGYDLDKLLFDCISTYKKDSRYRNDLRFLKIWEDFERVYREIEETEICKGHSLLYEWYAIFLEVKGLWRRANSVYQTGLSRKAEPFDRLKEAHSLFLQRISKRTKASSLEKVGDDAQATDLETGFVNPWETSTVNGLIHKIKPQLVKYDGYHVSNKVFPGKANLSSLQNYSRNKIIEIGILFSYQSSLSPLQDKESFFLL | failed
EPPDERAVADGWQQLVELGAVDSQHVLTAIGREMARLPVDVKSARMLVAARQHGCVHEMTVIAAFLGVQDPRERPPEAREAADNAHAKFADAR | not failed
MPNNHDVNPYGIAFVPAGLPAGSALQAGDVVVSNFNAASNKQGTGTTIVKLVTDGKPVTFFQGQNLGLTTALAVLKSGYVLVGNLPTTNGATITSTGSLLVITPQGKLLSELKDPTLLDGPWDMTVIIDNGQQVTAFVSNVLNGTVARIDLNIGPNGATLLQSSHLIASGYAHRPDPAALVVGPTGLAYDAAHDMLYVASTNDNKVFAIAGAAALAHDNGPGSVIYQDSNHLRGPLALALAPNGDLVTANGDAINPDPNQSSEIVEFTPDGRFVAQMQVDPAPGSAFGLAFGLSSSGQPQFAAVNDSTNTAIVWTLRPVGGN | failed
EKITILADAIPELHVEEANDKVMGSIDWEAALKQSAGKEDLAQEMLQMLVDFIPEVNEWIDKALESDISEEELCHYIHKLHGSSSYCGVPRLKQLCNLIETSLRQHQTISDIEPELFELQDEMEKVTKDANLLLSN | not failed
MPIFSFLLFVFISSFTPGPNNFLAMTYANQHGLKRSINFCFGVAFGFFILTSLCSFFNIVLINIIPIIEFPLKILGVAYMLYLAFKIITSKGGAGHNEKNNKNLFTVGIFLQFINPKGILFGLTVVSTFILPYYNSYSSFLLFSLFLGIVGLLSTFSWSLFGSMFQKLLLKHNQLFNIIMAVLLVFSAVSIVIH | failed
MQILEDFDGKALPKLETDRLILRQRTVGDVPAMFDYVCLEEVAYPAGLSPIASLEDEYDYFENRYYQNLEKAKLPSGYGITVKGSDRIIGSCAFNHRHEDDVFEICYLLHPDYWGHGYMTEAVAALIEVGFTLLNLHKIEIRCYDYNKQSRRVAEKLGFTLEATIRDRKDNQDNRCVNLIYGLLRSEWE | failed
LENCVFCKIIKRELPSTIYYEDERVIAIKDINPAAPVHVLIIPKEHIANVKEINESNAQILIDIHKAANKVAEDLGIAEKGYRLITNCGVAAGQTVFHLHYHLLGGVDMGPKIL | not failed
MLSLPPCRLAARRYRPLRQQNRGSSAVILYNAPSFFDCRFDCLANHRQRRWPRAGHPDRDDVMHTLEQLRAGKLCGARHLKLAENLTEFPPEIFSLKETLEVLDLTGNQLSRLPDGLAEFSKLRIIFCSENRFTELPEVLGRCPALTMVGFKANKIVTVPAASLPAGLRWLILTDNAVEQLPDELGQCGALQKLMLSGNRLRELPVTLANCQRLELVRIAANRLEALPHWLVRLPRLAWLAYAGNPFSDKQEQRLGQCASVADIPWDSLKVGELLGQGASGVIHRAELATPAGPRAVAVKCFKGAVTSDGLPRCELAVSLAAGRHPHLVGVEGRVGDHPSGIPALVMALIDPDFINLAGPPSLDSCTRDIYQADARFTPAALLAMVQGVASAALHLHGRGILHGDLYAHNMLHSLQEEGRLLLGDFGAASCYERTDGELAGLLERLEVRAFGCLLEELLARCAPCDDRLDALHALVDDCLAEVVAARPDFAEIAARLAAVAPVICAEPVLL | failed
MADFSRLPGPNADLWDWQLLAACRGVDSSLFFHPEGERGAARSARENSAKEVCMRCPVRAECAAHALAVREPYGVWGGLTEDEREELMGRARNRLVAATASASAGGEAAGPH | failed
